Assay results reported in patent US20210347900A1 (AstraZeneca / MedImmune, published 2021).

T1: Human CLEC-4L (DC-SIGN) (human, UniProt Q9NNX6 62-404)
T1 construct: Bought protein; also called C-type lectin domain family 4 member L
T1 sequence (looked up): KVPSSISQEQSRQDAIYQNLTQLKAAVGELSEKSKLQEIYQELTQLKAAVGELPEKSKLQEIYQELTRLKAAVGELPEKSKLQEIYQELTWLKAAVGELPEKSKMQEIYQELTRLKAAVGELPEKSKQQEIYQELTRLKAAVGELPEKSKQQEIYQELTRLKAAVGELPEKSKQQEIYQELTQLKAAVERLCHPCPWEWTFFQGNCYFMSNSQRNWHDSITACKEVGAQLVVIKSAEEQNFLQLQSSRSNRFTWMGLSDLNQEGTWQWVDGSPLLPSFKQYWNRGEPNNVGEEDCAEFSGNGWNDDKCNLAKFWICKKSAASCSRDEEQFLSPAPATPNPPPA

T2: Human SR-A1 (MSR) (human, UniProt P21757 77-451)
T2 construct: Bought protein; also called Macrophage scavenger receptor types I and II
T2 sequence (looked up): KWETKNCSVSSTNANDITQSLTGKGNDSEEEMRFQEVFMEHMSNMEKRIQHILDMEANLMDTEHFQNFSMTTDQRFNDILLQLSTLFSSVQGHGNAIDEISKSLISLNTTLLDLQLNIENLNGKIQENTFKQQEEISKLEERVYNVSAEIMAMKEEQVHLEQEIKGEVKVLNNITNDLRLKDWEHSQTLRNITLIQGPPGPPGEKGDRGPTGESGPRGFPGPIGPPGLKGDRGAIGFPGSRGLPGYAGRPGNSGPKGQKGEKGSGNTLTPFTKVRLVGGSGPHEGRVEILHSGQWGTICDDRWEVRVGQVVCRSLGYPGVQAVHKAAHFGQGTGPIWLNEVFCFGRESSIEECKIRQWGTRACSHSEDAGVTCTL

T3: Human CLEC-7A (Dectin-1) (human, UniProt Q9BXN2-2 66-201, limits assumed)
T3 construct: Bought protein; also called C-type lectin domain family 7 member A
T3 sequence (looked up): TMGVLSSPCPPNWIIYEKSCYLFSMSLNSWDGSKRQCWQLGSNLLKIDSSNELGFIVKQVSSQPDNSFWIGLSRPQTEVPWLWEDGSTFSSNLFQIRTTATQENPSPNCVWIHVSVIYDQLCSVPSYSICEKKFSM

T4: Human CLEC-1A (human, UniProt Q8NC01 74-280, limits assumed)
T4 construct: Bought protein; also called C-type lectin domain family 1 member A
T4 sequence (looked up): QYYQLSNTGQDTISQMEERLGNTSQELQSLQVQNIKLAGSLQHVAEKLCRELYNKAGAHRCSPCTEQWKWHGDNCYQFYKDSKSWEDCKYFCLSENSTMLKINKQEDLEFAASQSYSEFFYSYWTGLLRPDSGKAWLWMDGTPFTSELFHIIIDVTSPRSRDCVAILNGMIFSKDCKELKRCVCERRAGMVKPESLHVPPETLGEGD


Legend:
[1] = target: T5, human LOX1 on cells (human LOX1 transfected CHO TREX cells) (human, UniProt P78380 1-273); experiment: competition with DyLight 649 oxLDL on human LOX1 CHO TREX cells, FMAT
T5 construct: whole, on cells; also called hLOX1 transfected cells; hLOX1 CHO

[2] = target: T5, human LOX1 on cells (human LOX1 …); experiment: cell-based or functional assay
[3] = target: T5, human LOX1 on cells (human LOX1 …); experiment: competition with DyLight 649 oxLDL on hLOX1 CHO TREX cells (FMAT), mean; mean of n = 3
[4] = target: T6, recombinant human LOX1 (R&D Systems) (human, UniProt P78380 61-273); experiment: competition with biotin CRP on immobilised recombinant hLOX1 (DELFIA), mean
[5] = target: T7, human LOX1 SNP K167N variant on cells (K167N SNP transfected CHO TREX cells) (human, UniProt P78380 1-273); experiment: competition with DyLight 649 oxLDL on K167N hLOX1 CHO TREX cells (FMAT), mean
T7 construct: whole, on cells; also called hLOX1 K167N; K167N hLOX1 CHO

[6] = target: T7, human LOX1 SNP K167N variant on cells …; experiment: competition with DyLight 649 oxLDL on human LOX1 K167N CHO TREX cells, FMAT
[7] = target: T8, cynomolgus LOX1-(FlagHis) extracellular domain (cynomolgus monkey, UniProt A0A2K5VQ73 76-291); experiment: Biacore, antibody captured on protein G, LOX1 ECD as analyte
T8 construct: extracellular domain; Made in HEK293 EBNA cells; also called cynoLOX1; cyLOX

[8] = target: T6, recombinant human LOX1 (R&D Systems); experiment: competition with biotin CRP on plate-bound recombinant human LOX1, DELFIA
[9] = target: T9, mouse LOX1-(FlagHis) extracellular domain (mouse, UniProt Q9EQ09 55-363); experiment: IgG binding ELISA on coated antigen, europium anti-human IgG detection
T9 construct: extracellular domain
T9 sequence (Q9EQ09 55-363): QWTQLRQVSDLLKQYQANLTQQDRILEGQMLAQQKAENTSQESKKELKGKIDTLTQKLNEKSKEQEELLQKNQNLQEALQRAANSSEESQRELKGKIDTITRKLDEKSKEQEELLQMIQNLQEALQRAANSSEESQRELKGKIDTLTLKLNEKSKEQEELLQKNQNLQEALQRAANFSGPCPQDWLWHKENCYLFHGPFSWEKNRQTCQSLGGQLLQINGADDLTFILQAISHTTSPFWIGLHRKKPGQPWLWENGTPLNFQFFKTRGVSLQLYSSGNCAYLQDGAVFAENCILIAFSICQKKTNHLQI

[10] = target: T10, rat LOX1-(FlagHis) extracellular domain (rat, UniProt O70156 55-364); experiment: as above
T10 construct: extracellular domain
T10 sequence (O70156 55-364): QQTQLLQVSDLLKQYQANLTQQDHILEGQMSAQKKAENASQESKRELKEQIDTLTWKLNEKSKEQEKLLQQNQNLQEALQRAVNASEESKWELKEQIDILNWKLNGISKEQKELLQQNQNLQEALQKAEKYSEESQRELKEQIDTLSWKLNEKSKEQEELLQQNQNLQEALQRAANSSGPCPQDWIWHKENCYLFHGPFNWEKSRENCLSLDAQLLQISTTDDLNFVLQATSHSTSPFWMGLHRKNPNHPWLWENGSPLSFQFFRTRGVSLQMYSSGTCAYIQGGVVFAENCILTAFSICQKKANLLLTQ

[11] = target: T11, rabbit LOX1-(FlagHis) extracellular domain (rabbit, UniProt Q9XTA8 55-274); experiment: as above
T11 construct: extracellular domain
T11 sequence (Q9XTA8 55-274): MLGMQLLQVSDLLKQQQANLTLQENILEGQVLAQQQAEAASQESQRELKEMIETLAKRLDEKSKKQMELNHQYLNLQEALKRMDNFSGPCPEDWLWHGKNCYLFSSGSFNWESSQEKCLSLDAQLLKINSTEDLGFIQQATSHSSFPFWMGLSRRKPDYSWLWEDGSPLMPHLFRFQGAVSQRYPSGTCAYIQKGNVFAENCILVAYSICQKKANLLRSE

Human SR-B3 (CD36) = target: T12, Human SR-B3 (CD36) (human, UniProt P16671 30-439); experiment: IgG binding ELISA on coated antigen, absorbance at 450 nm;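 also: specificity panel of related human receptors, coated alongside human LOX1 as the binding positive control, with an isotype human IgG1-TM antibody setting the nonspecific background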
T12 construct: Bought protein; also called Platelet glycoprotein 4
T12 sequence (P16671 30-439 limits assumed): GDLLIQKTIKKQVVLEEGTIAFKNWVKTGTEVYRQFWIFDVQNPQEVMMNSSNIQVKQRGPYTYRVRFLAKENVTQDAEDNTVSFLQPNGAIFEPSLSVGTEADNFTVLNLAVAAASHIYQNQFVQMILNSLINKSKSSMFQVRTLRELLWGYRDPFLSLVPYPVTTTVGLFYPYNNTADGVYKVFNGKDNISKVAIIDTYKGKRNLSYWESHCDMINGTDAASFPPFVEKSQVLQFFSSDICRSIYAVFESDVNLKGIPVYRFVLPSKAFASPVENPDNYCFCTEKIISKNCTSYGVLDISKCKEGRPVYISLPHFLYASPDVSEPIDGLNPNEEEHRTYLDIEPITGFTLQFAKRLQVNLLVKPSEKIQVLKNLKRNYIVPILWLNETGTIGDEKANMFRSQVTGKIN

Human CLEC-4L (DC-SIGN) = target: T1, Human CLEC-4L (DC-SIGN); experiment: as above
Human SR-A1 (MSR) = target: T2, Human SR-A1 (MSR); experiment: as above
Human CLEC-7A (Dectin-1) = target: T3, Human CLEC-7A (Dectin-1); experiment: as above
Human CLEC-1A = target: T4, Human CLEC-1A; experiment: as above
Human CLEC-1B (CLEC-2) = target: T13, Human CLEC-1B (CLEC-2) (human, UniProt Q9P126 58-229, limits assumed); experiment: as above
T13 construct: Bought protein; also called C-type lectin domain family 1 member B
T13 sequence (Q9P126 58-229 limits assumed): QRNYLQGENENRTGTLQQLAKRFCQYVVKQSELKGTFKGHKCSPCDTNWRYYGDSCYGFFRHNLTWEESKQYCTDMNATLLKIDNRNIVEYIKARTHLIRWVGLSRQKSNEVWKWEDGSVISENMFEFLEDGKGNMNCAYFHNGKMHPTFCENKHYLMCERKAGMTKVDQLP

[12] = target: T5, human LOX1 on cells (human LOX1 …); experiment: competition with DyLight 649 AGE-BSA on hLOX1 CHO TREX cells (FMAT), mean

Row | binding result [11] | binding result (Human SR-B3 (CD36)) | binding result (Human CLEC-4L (DC-SIGN)) | binding result (Human SR-A1 (MSR)) | binding result (Human CLEC-7A (Dectin-1)) | binding result (Human CLEC-1A) | binding result (Human CLEC-1B (CLEC-2)) | Binder | binding result [9] | binding result [10] | further results
1 | binds | no binding | no binding | no binding | no binding | no binding | no binding | LX5140110 IgG1-TM (antibody, V domains shown, Whole human IgG1-TM (L234F/L235E/P331S); also called LOX514110; LOX514_110) VH: QVQLVQSGAEVKKPGASVKVSCKVSGYTLTELSMHWVRQAPGKGLEWMGGFDPEDFKYHTHQKFQGRVTMTEDTSTDTAYMELSSLRSEDTAVYYCALVWGTQGKGVRGWDYYYGMDVWGQGTTVTVSS VL: QSVVTQPPSVSGAPGQRVTISCTGSSSNIGAGYDVHWYQQLPGTAPKLLIYGNSNRPSGVPDRFSGSKSGTSASLAITGLQAEDEADYYCQSYDSSLSGWVFGGGTKLTVL | no binding (tested: 10 µg/mL (single concentration)) | no binding (tested: 10 µg/mL (single concentration)) | IC50 (read off the curve) [1]: ~1 nM; ROS ASSAY (IC50, mean) [2]: 1.98 nM; oxLDL/hLOX1 CHO Internalisation (IC50, mean) [2]: 0.312 nM; IC50 [3]: 0.105 nM; IC50 [4]: 5.02 nM; IC50 [5]: 0.492 nM; IC50 (read off the curve) [6]: ~0.4 nM; Kd [7]: 0.154 nM; koff [7]: 0.000168 s⁻¹; kon [7]: 1.09e+06 M⁻¹ s⁻¹; IC50 (read off the curve) [8]: ~5 nM; IC50 [12]: 0.0207 nM
2 | binds | no binding | no binding | no binding | no binding | no binding | no binding | LX5140092_N>D IgG1-TM (antibody, V domains shown, Whole human IgG1-TM; Heavy chain N96D (Kabat) variant of LX5140092; also called LX5140092_D) VH: QVQLVQSGAEVKKPGASVKVSCKVSGYTLTELSMHWVRQAPGKGLEWMGGFDPEDWKYHLSQKFQGRVTMTEDTSTDTAYMELSSLRSEDTAVYYCATPDGTHQGGVRGWDYYYGMDVWGQGTTVTVSS VL: QSVVTQPPSVSGAPGQRVTISCTGSSSNIGAGYDVHWYQQLPGTAPKLLIYGNSNRPSGVPDRFSGSKSGTSASLAITGLQAEDEADYYCQSYDSSLSGWVFGGGTKLTVL | no binding (tested: 10 µg/mL (single concentration)) | no binding (tested: 10 µg/mL (single concentration)) | 
3 | binds | no binding | no binding | no binding | no binding | no binding | no binding | LX5140108 IgG1-TM (antibody, V domains shown, Whole human IgG1-TM (L234F/L235E/P331S)) VH: QVQLVQSGAEVKKPGASVKVSCKVSGYTLTELSMHWVRQAPGKGLEWMGGFDPEDWSNHVSQKFQGRVTMTEDTSTDTAYMELSSLRSEDTAVYYCLTSTGRQGKGVRGWDYYYGMDVWGQGTTVTVSS VL: QSVVTQPPSVSGAPGQRVTISCTGSSSNIGAGYDVHWYQQLPGTAPKLLIYGNSNRPSGVPDRFSGSKSGTSASLAITGLQAEDEADYYCQSYDSSLSGWVFGGGTKLTVL | no binding (tested: 10 µg/mL (single concentration)) | no binding (tested: 10 µg/mL (single concentration)) | 

Row | Binder | binding result [11] | binding result (Human SR-B3 (CD36)) | binding result (Human CLEC-4L (DC-SIGN)) | binding result (Human SR-A1 (MSR)) | binding result (Human CLEC-7A (Dectin-1)) | binding result (Human CLEC-1A) | binding result (Human CLEC-1B (CLEC-2)) | binding result [9] | binding result [10] | further results
4 | LX5140093_N>D IgG1-TM (antibody, V domains shown, Whole human IgG1-TM; Heavy chain N96D (Kabat) variant of LX5140093; also called LX5140093_D) VH: QVQLVQSGAEVKKPGASVKVSCKVSGYTLTELSMHWVRQAPGKGLEWMGGFDPEDWAYHQAQKFQGRVTMTEDTSTDTAYMELSSLRSEDTAVYYCATPDGQQGKGVRGWDYYYGMDVWGQGTTVTVSS VL: QSVVTQPPSVSGAPGQRVTISCTGSSSNIGAGYDVHWYQQLPGTAPKLLIYGNSNRPSGVPDRFSGSKSGTSASLAITGLQAEDEADYYCQSYDSSHRAWAFGGGTKLTVL | no binding (tested: 10 µg/mL (single concentration)) | no binding | no binding | no binding | no binding | no binding | no binding | no binding (tested: 10 µg/mL (single concentration)) | no binding (tested: 10 µg/mL (single concentration)) | 
5 | LX6960073_gl IgG1-TM (antibody, V domains shown, Whole human IgG1-TM, germlined) VH: EVQLVESGGGLVQPGRSLRLSCAASGFTSDDYAMHWVRQAPGKGLEWVSGISWNSGSIGYADSVKGRFTISRDNAKNSLYLQMNGLRAEDTAVYYCAREGSWNYDALDIWGQGTMVTVSS VL: QSALTQPASVSGSPGQPITISCTGTSSDVGGYNYVSWYQQHPGKAPKLMIYDVSKRPSGVSNRFSGSKSGNTASLTISGLQAEDEADYYCMGGMGRSTNWVFGGGTKLTVL | no binding (tested: 10 µg/mL (single concentration)) | no binding | no binding | no binding | no binding | no binding | no binding | no binding (tested: 10 µg/mL (single concentration)) | no binding (tested: 10 µg/mL (single concentration)) | 
